Patent US7419799 (GENETECH, dated 2008)

What was measured:
[1] = target: T1, SHP1 (human, UniProt P29350 1-595); experiment: co-immunoprecipitation from isolated human CD4+ T cells (untreated), Western blot
[2] = target: T2, SHP2 (human, UniProt Q06124 2-593); experiment: as above
T2 sequence (looked up): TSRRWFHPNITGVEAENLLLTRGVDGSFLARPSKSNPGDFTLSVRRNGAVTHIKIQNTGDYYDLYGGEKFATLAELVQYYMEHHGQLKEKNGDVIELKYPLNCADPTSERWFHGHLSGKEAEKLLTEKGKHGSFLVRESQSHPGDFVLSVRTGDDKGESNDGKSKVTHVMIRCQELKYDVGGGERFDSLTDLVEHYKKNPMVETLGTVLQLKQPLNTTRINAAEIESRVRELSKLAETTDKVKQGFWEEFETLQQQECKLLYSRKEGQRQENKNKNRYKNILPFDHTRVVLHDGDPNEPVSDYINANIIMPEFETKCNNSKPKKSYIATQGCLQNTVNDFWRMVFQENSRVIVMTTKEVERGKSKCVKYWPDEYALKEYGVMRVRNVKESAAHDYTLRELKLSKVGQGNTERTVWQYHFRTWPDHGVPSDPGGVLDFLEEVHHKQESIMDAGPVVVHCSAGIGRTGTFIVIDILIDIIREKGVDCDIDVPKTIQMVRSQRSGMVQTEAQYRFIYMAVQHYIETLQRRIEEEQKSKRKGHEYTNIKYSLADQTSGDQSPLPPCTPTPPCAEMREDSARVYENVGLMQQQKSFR

[3] = target: T1, SHP1; experiment: co-immunoprecipitation from isolated human CD4+ T cells (CD3 and PRO20080 cross-linked), Western blot
[4] = target: T2, SHP2; experiment: as above
[5] = target: the molecule itself; experiment: BIAcore, homotypic interaction of His-tagged PRO20080
Protocol: Lastly, a BIAcore® assay was performed to determine if a His-tagged PRO20080 would associate with itself. The association rate can be determined by any method in which formation of the complex may be observed as a function of time. In the BIAcore® analysis, in which one measures the association of the protein to an protein that has been immobilized on a biosensor surface (reviewed by Rich & Myszka, Curr. Opin. Biotechnol. 11:54-61 (2000)).

T1 sequence (P29350 whole entry): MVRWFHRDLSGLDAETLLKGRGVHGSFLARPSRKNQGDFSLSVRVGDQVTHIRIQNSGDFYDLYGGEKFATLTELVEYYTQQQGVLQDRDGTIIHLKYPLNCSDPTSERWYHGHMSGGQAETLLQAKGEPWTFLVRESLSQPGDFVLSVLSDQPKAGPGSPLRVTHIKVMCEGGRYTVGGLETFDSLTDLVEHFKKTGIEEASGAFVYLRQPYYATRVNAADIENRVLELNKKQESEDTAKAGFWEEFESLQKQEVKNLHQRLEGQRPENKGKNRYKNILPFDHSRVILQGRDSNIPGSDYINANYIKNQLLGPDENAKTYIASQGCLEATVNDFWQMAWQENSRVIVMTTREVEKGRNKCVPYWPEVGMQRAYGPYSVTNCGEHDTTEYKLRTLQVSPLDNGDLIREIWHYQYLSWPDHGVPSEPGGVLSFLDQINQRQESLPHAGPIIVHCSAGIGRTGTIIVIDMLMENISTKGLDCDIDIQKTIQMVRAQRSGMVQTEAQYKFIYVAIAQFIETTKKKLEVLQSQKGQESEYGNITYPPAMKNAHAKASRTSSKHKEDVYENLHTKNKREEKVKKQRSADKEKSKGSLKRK

B1: wild type PRO20080 (full-length, expressed in cells) (receptor)
chain: FGPGNVVSQSSLTPLMVNGILGESVTLPLEFPAGEKVNFITWLFNETSLAFIVPHETKSPEIHVTNPKQGKRLNFTQSYSLQLSNLKMEDTGSYRAQISTKTSAKLSSYTLRILRQLRNIQVTNHSQLFQNMTCELHLTCSVEDADDNVSFRWEALGNTLSSQPNLTVSWDPRISSEQDYTCIAENAVSNLSFSVSAQKLCEDVKIQYTDTKMILFMVSGICIVFGFIILLLLVLRKRRDSLSLSTQRTQGPAESARNLEYVSVSPTNNTVYASVTHSNRETEIWTPRENDTITIYSTINHSKESKPTFSRATALDNVV
notes: also called PRO20080 receptor
B1: no binding [1]; no binding [2].

B2: phosphorylated PRO20080 (receptor)
chain: B1 chain
modifications: tyrosine-phosphorylated (detected with anti-phosphotyrosine antibody; sites not stated)
notes: The phosphorylated residues are not identified; also called PRO20080 in pervanadate treated cells; PRO20080 after CD3 and PRO20080 cross linking
B2: no binding [3]; no binding [4].

B3: His-tagged PRO20080 (receptor)
chain: QSSLTPLMVNGILGESVTLPLEFPAGEKVNFITWLFNETSLAFIVPHETKSPEIHVTNPKQGKRLNFTQSYSLQLSNLKMEDTGSYRAQISTKTSAKLSSYTLRILRQLRNIQVTNHSQLFQNMTCELHLTCSVEDADDNVSFRWEALGNTLSSQPNLTVSWDPRISSEQDYTCIAENAVSNLSFSVSAQKLCEDVKIQYTDTKM
notes: In the BIAcore assay the same protein served as both the immobilized and the soluble partner; not shown: His tag
B3 was tested, and the Kd [5] was over 100 µM.
